This is an account of results in the DeepSol protein solubility set.

This series can be described thus: soluble on expression in E. coli; label from the status in PepcDB or PDB records.
For “MSEYLAAADYLPHSAPMVLVDEVIHVDDEHAHCRVAVSREGILAPFLNAQGHLPAWFGIEIIAQTIGVWSGWHGRQSLGLQEKPRPGMLLGGRGYHCQQAIFPAGSLLDVTVMLVMRDEKIGSFEGEIAIDGEKYASGRLNTYQPDDRELNILLEQGKPL”, the “soluble on expression in E. coli” value was “not soluble”.
To “MGSDKIHHHHHHMDFSDEKMPFLADAVDRVRVEECFRQCLVIAQNFRVQNIRVIRHKLGRRCLIEYELMDDVGEIITLIGKVRAKGTDFHSYELQKSLWESGFADDSADGISVPEPVGIIPEWQMWLQRRVEGVTATQILSQTNGIFPAKLIAEAAYKLHQANIIPRRSHRMSDELRILHERIPLVMEQYPQWQRRLERILLASDDLGANTPELKLCGIHRDFYPDQVIMNNSRLYLLDLDLYCAGNPAVDIGNFIAHLQEYSLRTVGNPQALQEYEDILKTRFLQLTGDEFSLAIQAYTILTLVRHIYISTLFPERRPFTAALLHLCEQRLNITHNS” belongs “not soluble”; to “MGSDKIHHHHHHMGIINAAFRLSQIERSIINKECHRTTCSLMDFIRDYTVVATDLEEAVQLRSTYNSLRRLGESDITEEDAVNILQQGTVIFNRISAYSYEELERKLVANYPNTPVLNAVDVVKKYSQKGNFKLGPVSTVLNAGEITGIVGENGNGKTTLLRILARLLSYDEGVLQYQFDGQETTEDYLIKHRIAYIPQRLESWQGTLRENLHYAATIHNIVGEENEKIVEFVIHRMGLSNFAHLGWKELSSGYKLRFELAKMLVWSPRILVLDEPLANLDINAQEWILQDFKSMASSIKNPVSVILSSQQLHEVEHVADNIIFLRNGRCDYSGAMNAFMQERDENVFELSGNFTSKELQPIFSNHAVQFSESGITIIVRTNTAITAADVLSMLISNGYTIKYFRDISTSTKQLFQL”, “not soluble”.
The result for “ELVMTQTPLSLPVSLGDQASISCRSSQSLVHSNGNTYLHWYLQKPGQSPKFLIYKVSNRFSGVPDRFSGSGSGTDFILKISRVEAEDLGVYFCFQSTHFFPTFGGGTKLEIKRTVAAPSVFIFPPSDEQLKSGTASVVCLLNNFYPREAKVQWKVDNALQSGNSQESVTEQDSKDSTYSLSSTLTLSKADYEKHKVYACEVTHQGLSSPVTKSFNRGEC” reads “soluble”; that for “MGHHHHHHSHMIKQRTLKRIVQATGVGLHTGKKVTLTLRPAPANTGVIYRRTDLNPPVDFPADAKSVRDTMLCTCLVNEHDVRISTVEHLNAALAGLGIDNIVIEVNAPEIPIMDGSAAPFVYLLLDAGIDELNCAKKFVRIKETVRVEDGDKWAEFKPYNGFSLDFTIDFNHPAIDSSNQRYAMNFSADAFMRQISRARTFGFMRDIEYLQSRGLCLGGSFDCAIVVDDYRVLNEDGLRFEDEFVRHKMLDAIGDLFMCGHNIIGAFTAYKSGHALNNKLLQAVLAKQEAWEYVTFQDDAELPLAFKAPSAVLA”, “not soluble”.
The result for “MLSLATFFITMTTHRKPSQEQGFLNGQFLLAMPGMSDERFARSVVYICAHSDEGAMGFIINQLQPVQFPDLLRQIGVIGEEDLIILPDRAQHMVVRNGGPVDRTRGFVLHSDDYMVDSTMPVSDDVCLTATVDILRAIYGGGGPERALMALGYSGWAPGQLEMEVAENGWLTCDAPLDMLFDSDIEGKYSRLMLHMGIDMSRLVSDAGHAAADPLEHHHHHH” reads “not soluble”; that for “MAHHHHHHMDMLHQIYALEYKRNTQRSDRIRDKDKTKIRILFIGGNEFSLLCFKVIRLIIKYVRNDIVLDHVITKSPRKKGRHLKLKKSHIEEEAEKEKIKIFYYDKIRNDTYMLKNETFDLCISASFGEIFNASFFKNIASNVYTLHPSLLPLYRGASPIQRSLLNNESLFGYSIFLTNLRIDAGPVLIRSPHTFGDAFNFNDIITILFTLGSLHLMRHIFFLANYKLGSTNGELQRTVESPNPSTISTHNNNKHLKIRHLLYDEENITPHNVKKKQFMLHTDIGQDKMNYAWLRNYLMLSSTHNNNTYAPKIKSEERYVCFFCSTALHIHNKVRGFINWPKVECTLYLVHKGGLKAMEVKLIKTSQESGDHISHQHLHQFKHLDALQSHKCFDGIPRKLAIFNRGAINILCKDNSLLKIYKLQRKNKKIMDASSFFNSINGVDLLY”, “not soluble”.
As to “MSPKSVVITGANRGIGLGLVQEFVKDKNIRHIIATARDVEKATDLKAISDPRVTALQLEVTCDKSMDTFVSKVEEIVGSDGLNLLVNNAGNAVDYPCKAKPNRALFAEQLNVNTTSVVILTQKLMPLLIKASSKVSGDQLSASRAAVVTISSGLASMTDFATGGHAPNAFAYRISKAAINMFGRALANDMKDDHILVASIGPGWVKTDMGGEKALLTVEQSTAELVASFNKLNNSHNGGFFQKDLTPYPF”, the “soluble on expression in E. coli” value is listed as “not soluble”.
On to “MTIQLINESSNTAKFQQICEKWQLVHDKSASLALVLTDTRLELRKLDEAKLGAIAVNFVDGTLAHRRKFGGGRGEAIAKAVGIKGNYLPSVIDATAGLGRDAFVLAAIGCKVTLVERHPVIAALLEDGLTRAYLDAEIGEFMQQRMQLANVHNIAQLDTTTQSADVVYLDPMYPHKQKSALVKKEMRVFQHLVGADLDADQFLLPAKALATKRVVVKRPDYAPPLAEQHPSFSQKTKNHRFDIYLSPLQKRLEHHHHHH”, for which the “soluble on expression in E. coli” value is “soluble”.
The result for “MLRSIICNMCNLSDESKQFEMTPPSSNLSSLFPTGRAVRNPFGKVYFVVILKGKAMVRIDGKSMLLLERTFLFLPPGHLLLRLSCTQDFLFQYLSFSFDFLSDFPLLLKADISNQVTNAPCLPMSPEDFSLIKMYYHFIYHRYLDAECPSEVIKGMLFSLVLEVCRMYSGRNISVEMSRQDKLVDGFFSLLHKYCTQERMAAFYASRLCISDKYLMRSIKKQTGQTFHYWMADFILREAKLMLRSTDLSVTEIADKLSFPNSSSFARFFRKYTGFSPVQFRNEA” reads “not soluble”; that for “MGESLDRCIDDINRAVDSMSTLYFKPPGIFHNAILQGASNKASIRKDITRLIKDCNHDEAYLLFKVNPEKQSVSRRDGKEGVFDYVIKRDTDMKRNRRLGRPGEKPIIHVPKEVYLNKDRLDLNNKRRRTATTSGGGLNGFIFDTDLIGSSVISNSSSGTFKALSAVFKDDPQIQRLLYALENGSVLMEEESNNQRRKTIFVEDFPTDLILKVMAEVTDLWPLTEFKQDYDQLYHNYEQLSSKLRFIKKEVLLQDDRLKTMSQYHPSSSHDVAKIIRKEKDEIRRLEMEIANLQE”, “not soluble”; that for “METQDVVAKHYDELASEDRATRKSSKILSLRNLNNWVKSVLIALHTRPGYSVLDLACGKGGDLQKWQSQQITQYVGCDISKESLKTAQQRYQQLKKCTFTAQFLCGDCFSCRLSRYLEPDRNFHIVSCQFSMHYAFSCEEKVRRLLENVTERLVAGGFFIGTIPDSNVLVRKLRASSGLEFGNEFYRVVFDDSSSKTFTKPFGIRYHFYLESSVLDIPEYLVVMPVFEKLAKGYGLELQLVMNFHEFITMYLSAGSPFISLFHRMNILQDGGLSPEFWDTAYLYTVFAMKKQGASPWLGLSPESISYVDNTSFERKVIVMMDDEELDSERITFVDKEWNEMIPKRIKLQK”, “soluble”.
To “MTKSRKQKQKKQDFLRKKLKVGKPKEKARNATDTSFVSKTISIRNQHLDQNPHDLTKRLTLLKHHNINVRKETLTTFQKSIPSIIKSRLMTPLLTQSIPLICDESQQVRQGLIDLVDEIGSHDAEILKLHCNIFVLYINMAMTHIVTQIQADSTKFLSHLLKYCGDEVVRKSWVKLLNGVFGVLGWGQVGKNDSASIVQTKKRNAKYVTIHLNALYTLVEYGCQDERARSDGDTAETTEDSGTLRNPYLIPDYPQPFEHLKLFTRELKVQDATSSGVNATLLSLATQDIDTRKAVFIEQFLPIVRKKIEVIIKEGGECGKSANKLKTLLAKIFD” belongs “soluble”.
To “MAAFNAKYLIDLLKRIRSGEESIDSPDALELLYIPLPLAHELGVINSMDGLDPYDEMEISCKSILKKLDEKKKTEEKHRAKQERQAQKKGAKEQAKKEKAELKKEAKELLKKEKAEERKKESLKRKLSEKSEPAAKKAKASEDQENRGATKKKITPPNRKHTALFKKCMAMRVKNFAY” belongs “not soluble”; to “MAPKAEKKPSEKAPKADKKITKEGGSERKKKTKKSTETYKIYLFKVLKQVHPDIGISGKAMGIMNSFINDTFEKIALESSRLARYNKKPTITSREIQTAVRLVLPGELAKHAVSEGTKAVTKFTSS”, “not soluble”; to “MVLLVMKSSTTIITAYFDIGRGDWTANKGFREKLARSVDVYFSYFERLAALENEMIIFTSPDLKPRVEAIRNGKPTTVIVIDIKKKFRYIRSRIEKIQKDESFTNRLEPRQLKNPEYWSPEYVLVCNLKAYFVNKAINMGLVKTPLVAWIDFGYCRKPNVTRGLKIWDFPFDESKMHLFTIKKGLTVTSQQQVFDFMIGNHVYIIGGAIVGSQHKWKEFYKLVLESQKITLNNNIVDDDQGIFVMCYYKRPDLFNLNYLGRGKWFDLFRCFRSNTLGAKMQALRIFLSRK”, “not soluble”.
With “MSLDNLITIYDKNDANNLAEHLYDTQGLGALSDWLTATVSNKLNGAEIFQGTYSINGTNADLIVEGRIIQCYVDENRAKQRLRIYYAKTSVIGNTIEVKAEPIFNDIRKSVLNKYDSGTEKITATQAWQNAKVLAKPAIPSQFSFSSLVDTLANVKIEKANFLEFFGGKEGSILDRFHGEFLKDNNTLRHEKSLGTDHKIKAIYTKNLTGLDLEIDAQSVLVGVYPFISSSSEGEDEITLPEEVIFTDYVDDYPAGYVSFVDFKDKATDVATLREAAKDWLKTNIDKQKPQVSGSIELVPLRHQRGYEKFVDLEKVSMGDGVDVYHPQLKVNMSARIVEYTFNVLTNSYDKLVVGNVKTNFLENTENNVSNLINDEGHHHHHH”, the “soluble on expression in E. coli” value is given as “soluble”.
The result for “MGSDKIHHHHHHNEKGGGTGSSSVGADTEPSVTGVHWTVDSVTVNGTTHQAPDGAHVEIAEDGRATGNYGCNSFHSTATFKGDRITLSRTLSTEMACEKRPMEFETTLARALAAGPLTAEAGQGKLTLTTAKGDRVHLTEEKDAPLYGTKWTVNSLIGGDVAQSLPAAADGKAWLTFTKKSESGDKKSGEKERGDKEVGTVSGSLGCNRVSAMATVRGSHITLGAPRTTRQMCSGSLMTTEKSLLKLFDSTVSYRIDHRAITLTSENGEGIGAIADR” reads “not soluble”; that for “MGSDKIHHHHHHAMFPERYVSEESAARADTINFRLASAGEAKRLIAAKDSYTANWSPFDIAARLENPEGKREDLVSLAVREVREWTAEEAQQIEQIRKNLNDTIRKYGYRIPFPKEIVLVKTTMKDEGGAGGYTRSNWIALTDATFQRGTEASHTRLLVHETFHILTRLNPGFKKKLYRAIDFNILPKEIEFPEDIRKSRISNPDVSRCDSYATFTIDGKPQNCTMIIYTNRPYTTGKFYQYINVGLIPLDESFKPLRESGKTVIYPLQKATDFFDKVGRNTGYVIDPEEVLADNFAIALLNTPNVHTPELQKKVQELLK”, “not soluble”.
To “GSHMKHTELRAAVLDALEKHDTGATFFDGRPAVFDEADFPAVAVYLTGAEYTGEELDSDTWQAELHIEVFLPAQVPDSELDAWMESRIYPVMSDIPALSDLITSMVASGYDYRRDDDAGLWSSADLTYVITYEM” belongs “soluble”; to “MSLKSVVNDTDGIVRVAKSVIPEIKHQDEVRVKIASSGLCGSDLPRIFKNGAHYYPITLGHEFSGYIDAVGSGVDDLHPGDAVACVPLLPCFTCPECLKGFYSQCAKYDFIGSRRDGGFAEYIVVKRKNVFALPTDMPIEDGAFIEPITVGLHAFHLAQGCENKNVIIIGAGTIGLLAIQCAVALGAKSVTAIDISSEKLALAKSFGAMQTFNSSEMSAPQMQSVLRELRFNQLILETAGVPQTVELAVEIAGPHAQLALVGTLHQDLHLTSATFGKILRKELTVIGSWMNYSSPWPGQEWETASRLLTERKLSLEPLIAHRGSFESFTQAVRDIARNAMQGKVLLIPEGHHHHHH”, “soluble”.
